Source: US20120108503A1

Target: hepatic leptin receptor (rat) (UniProt Q62959)
Assay: cell-based or functional assay

Sequence of UniProt Q62959 (Q62959 22-1162): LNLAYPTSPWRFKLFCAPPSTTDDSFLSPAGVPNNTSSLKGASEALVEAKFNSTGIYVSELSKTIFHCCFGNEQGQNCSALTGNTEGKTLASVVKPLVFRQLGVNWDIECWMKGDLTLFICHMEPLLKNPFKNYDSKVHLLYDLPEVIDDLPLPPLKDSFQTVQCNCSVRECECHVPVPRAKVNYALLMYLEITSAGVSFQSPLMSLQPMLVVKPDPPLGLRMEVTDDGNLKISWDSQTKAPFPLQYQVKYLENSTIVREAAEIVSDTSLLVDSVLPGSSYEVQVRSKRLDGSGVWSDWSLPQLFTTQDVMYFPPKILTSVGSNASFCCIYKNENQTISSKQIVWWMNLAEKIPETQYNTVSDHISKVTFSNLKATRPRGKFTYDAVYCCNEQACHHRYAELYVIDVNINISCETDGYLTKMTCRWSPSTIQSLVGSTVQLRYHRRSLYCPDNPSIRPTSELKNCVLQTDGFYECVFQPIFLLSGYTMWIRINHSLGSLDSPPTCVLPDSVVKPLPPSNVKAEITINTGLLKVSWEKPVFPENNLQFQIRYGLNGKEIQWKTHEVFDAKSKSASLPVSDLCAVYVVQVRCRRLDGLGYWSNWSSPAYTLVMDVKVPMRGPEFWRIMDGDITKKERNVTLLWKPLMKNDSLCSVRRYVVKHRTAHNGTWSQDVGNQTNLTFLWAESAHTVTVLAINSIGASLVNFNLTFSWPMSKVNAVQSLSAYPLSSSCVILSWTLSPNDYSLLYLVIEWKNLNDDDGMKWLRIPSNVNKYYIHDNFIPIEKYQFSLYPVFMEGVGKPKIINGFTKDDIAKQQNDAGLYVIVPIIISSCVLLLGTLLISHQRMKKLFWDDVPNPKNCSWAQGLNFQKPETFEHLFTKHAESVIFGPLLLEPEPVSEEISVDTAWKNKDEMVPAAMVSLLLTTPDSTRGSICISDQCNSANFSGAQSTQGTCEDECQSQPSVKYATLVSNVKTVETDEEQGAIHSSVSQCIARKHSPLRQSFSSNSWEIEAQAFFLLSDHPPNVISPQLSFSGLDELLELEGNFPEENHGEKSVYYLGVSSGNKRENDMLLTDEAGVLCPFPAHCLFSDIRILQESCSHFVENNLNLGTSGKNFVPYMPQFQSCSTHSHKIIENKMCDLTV

leptin expressed in vivo from adenovirus containing the leptin cDNA (Adv-leptin) (ligand)
hepatic phosho-STAT-3: 3 fold
